Measurements reported in article PMC11832919 (Nature Communications, 2025).

Target: StrepTag II-IsdB (Staphylococcus aureus iron-regulated surface determinant protein B) (S. aureus, UniProt Q2FZF0 41-613)
Experiment: SAXS

Chain of StrepTag II-IsdB (Staphylococcus aureus iron-regulated surface determinant protein B) (Q2FZF0 41-613): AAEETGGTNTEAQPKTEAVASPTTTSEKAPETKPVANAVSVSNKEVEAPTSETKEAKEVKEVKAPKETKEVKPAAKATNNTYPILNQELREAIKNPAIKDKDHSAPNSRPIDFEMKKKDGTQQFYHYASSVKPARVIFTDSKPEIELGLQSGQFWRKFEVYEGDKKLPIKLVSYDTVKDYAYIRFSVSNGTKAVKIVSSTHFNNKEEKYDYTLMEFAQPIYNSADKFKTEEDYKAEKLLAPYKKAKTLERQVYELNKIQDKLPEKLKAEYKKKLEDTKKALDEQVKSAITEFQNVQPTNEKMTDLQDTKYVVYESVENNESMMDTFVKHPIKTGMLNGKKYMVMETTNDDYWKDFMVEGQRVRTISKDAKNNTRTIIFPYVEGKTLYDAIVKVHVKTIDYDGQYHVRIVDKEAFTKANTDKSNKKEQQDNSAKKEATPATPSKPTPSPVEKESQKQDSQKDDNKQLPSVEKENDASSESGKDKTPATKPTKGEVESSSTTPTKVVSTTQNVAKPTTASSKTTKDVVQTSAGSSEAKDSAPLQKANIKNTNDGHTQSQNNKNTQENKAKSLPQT

B1: human methemoglobin (coordinating oxidized heme) (complex)
chain 1: not shown
chain 2: not shown
  Kd: 1680 ± 620 nM
